The values below come from the nanobody polyreactivity screen of Harvey et al. (2022).

The data set is described as follows: yeast display, Sf9 membrane polyspecificity reagent, FACS + sequencing; frameworks hold sequencing errors. The procedure, abridged: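 Galactose induction of a Saccharomyces cerevisiae BJ5465 synthetic nanobody display library ran 36–48 hours. The cells were then stained for 1 hour at 4 °C with 10% biotinylated, detergent-solubilized Sf9 membrane reagent, pulled down on streptavidin microbeads and FACS-sorted into low and high (top ~1%) gates on expression and reagent-binding fluorescence. Labels for polyreactivity follow the gate of origin.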
Take “QVQLEESGGGLVQAGGSLRLSCAASGSISYNNVMGWYRQAPGKERELVARIRSGGSTYYADSVKGRFTISRDNAKNTVYLLMNSLKQEDTAVYYCAARTKRQAGSYGYWGQGTQVTVSS”: the “polyreactivity (PSR sort gate)” value is listed as “high polyreactivity”.
Consider “QVQLEESGGGLVQAGGSLRLSCAASGSTFCYYPMGWYRQAPGKEREFVAAISSSGGSTYYADYVKGRFTISRDNAKNTVYFQMNSLKPEDTAVYYCARVGFPGFYWGQGTEVTVSS”, for which the “polyreactivity (PSR sort gate)” value is “high polyreactivity”.
For the sequence “QVQLEESGGGLVQAGGSLRLSCAASGSTFEGYAMGWYRQAPGKERELVAVISSGSITKYADSVKGRFTISRDNAKNTVFLQINSLKPEDTAVYYCARKGGIIFASYLLGGYWGQGTQVTVSS”, the “polyreactivity (PSR sort gate)” value was “low polyreactivity”.
With “QVQLEESGGGLVQAGGSLRLSCAASGSTFEVYAMGWYRQAPGKERELVAVINVSDGSTYYADSVKGRFTISRDYAKNTVYLQMNSMKPEDTAVYYCADYLYNRPYQLTGYYDGYGYWGQGTQVTVSS”, the “polyreactivity (PSR sort gate)” value is reported as “low polyreactivity”.
For the sequence “QVQLEESGGGLVQAGGSLRLSCAASGSTFFPYAMGWYRQAPGKERELVAGISSDGGTSYADSVKGRFTISRDTAKNTVYLQMNSLKPEDTAVYYCNARAVNVRDYINYDYWGQGTQVTVSS”, the “polyreactivity (PSR sort gate)” value was “low polyreactivity”.
As for “QVQLEESGGGLVQAGGSLRLSCAASGSTFGNYAKGWYRQAPGKERELVAAITATGGRTYYADSVKGRFTISRDNAKNTVYLQMNSVKPEDTAVYYCAAGYRTGGDSGDYWGQGTQVTVSS”, the “polyreactivity (PSR sort gate)” value is “high polyreactivity”.
Regarding “QVQLEESGGGLVQAGGSLRLSCAASGSTFGPNTMGRYRQAPGKERELVAAISRAGRTYYADSVKGRFTISRDNAKNTVYLQINSLKPEDTAVYYCNAGRSYHWRAGREYDYWGQGTQVTVSS”, the “polyreactivity (PSR sort gate)” value is “low polyreactivity”.
The value for “QVQLEESGGGLVQAGGSLRLSCAASGSTFGWYAMGWYRQAPGKERELVASITSGGRTNYADSVKGRFTISRDNAKNTVYLQMNCLKPEDTAVYYCAKRVYGSNSLYDYWGQGTQVTVTS” was “low polyreactivity”; that for “QVQLEESGGGLVQAGGSLRLSCAASGSTFGYYAMGWYRKAPGKERELVAAISRSGGSTYYADSVKGRFTISRDNAKNTVYLQMNSLKPEDTAVYYCAAKVYGAVYHYYYWGQGTQVTVSS” was “high polyreactivity”; that for “QVQLEESGGGLVQAGGSLRLSCAASGSTFGYYTMGWYRQAPGKERELVAAISWSGGSTYYADSVKGRFTISRDNAKNTVYLQMNSLKPEDTAVYYCAALGYTYKYYSYYWGQGTQVTVSS” was “high polyreactivity”.
Regarding “QVQLEESGGGLVQAGGSLRLSCAASGSTFKLYTMGWYRQAPGKEREFVATITSGGRTNYADSVKGRFTISRDNAKNTVYLQMNSLKPEDTAVYYCAATWLRVKYRFKGYDYWGQGTQVTVSS”, the “polyreactivity (PSR sort gate)” value is recorded as “high polyreactivity”.
With “QVQLEESGGGLVQAGGSLRLSCAASGSTFRAYAMGWYRQAPGKERELVAAITSTTDTYYADSVKGRFTISRDNAKNTVYLQMNSLKPEDTAVYYCASVWVWTYDYWGQGTQVTVSS”, the “polyreactivity (PSR sort gate)” value is reported as “low polyreactivity”.
For the sequence “QVQLEESGGGLVQAGGSLRLSCAASGSTFRDNALGWYRQAPGKETELVAGITRGGITNYADSVKGRFTISRDNAKNTVYLQMNSLIPEDTAVYYCAAEVTGTYYDYDYWGQGTQVTVSS”, the “polyreactivity (PSR sort gate)” value is “low polyreactivity”.
With “QVQLEESGGGLVQAGGSLRLSCAASGSTFTFNAMGWYRQAPGKERELVAVISSGGSTYYAESVKGRFTISRDNAKNTFYLQMNSLKPEDTAVYYCNKVYGYFGQYYLRYNYWGQGTQVTVSS”, the “polyreactivity (PSR sort gate)” value was “low polyreactivity”.
“QVQLEESGGGLVQAGGSLRLSCAASGSTFTVNGMGWYRQAPGKERELVAAIDGGDGSTYYADSVKGRFTISRDNAKNTVYLQMNSLKPEDTAVYYCAADTPCFTQYGYWGQGTQVTVSS”: the “polyreactivity (PSR sort gate)” value is recorded as “low polyreactivity”.
Consider “QVQLEESGGGLVQAGGSLRLSCAASGSTFVEYAMGWYRQAPGKERELVAAITASGGSTYYADSVKGRFTISRDNAKNTVYLQMNSLKPEDTAVYYCAVTTRSRGFRDIDYWGQGTQVTVSS”, for which the “polyreactivity (PSR sort gate)” value is “low polyreactivity”.
